In patent US20030219853:

What was measured:
[1] = test system: BSA5 peptide
[2] = biological target: bovine serum albumin (BSA) (UniProt P02769)
[3] = test system: histone H3 protein
[4] = biological target: ovalbumin (UniProt P01012)
[5] = biological target: recombinant serum albumin (UniProt P02768)
[6] = biological target: T1, β-casein (UniProt P02666)
T1 sequence: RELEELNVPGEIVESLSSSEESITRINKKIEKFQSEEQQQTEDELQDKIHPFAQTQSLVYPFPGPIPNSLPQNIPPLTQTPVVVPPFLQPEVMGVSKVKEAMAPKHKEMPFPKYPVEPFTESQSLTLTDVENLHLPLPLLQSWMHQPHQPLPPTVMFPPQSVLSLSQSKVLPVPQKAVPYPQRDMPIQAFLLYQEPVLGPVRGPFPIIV

Chain of bovine serum albumin (BSA) (P02769 25-607): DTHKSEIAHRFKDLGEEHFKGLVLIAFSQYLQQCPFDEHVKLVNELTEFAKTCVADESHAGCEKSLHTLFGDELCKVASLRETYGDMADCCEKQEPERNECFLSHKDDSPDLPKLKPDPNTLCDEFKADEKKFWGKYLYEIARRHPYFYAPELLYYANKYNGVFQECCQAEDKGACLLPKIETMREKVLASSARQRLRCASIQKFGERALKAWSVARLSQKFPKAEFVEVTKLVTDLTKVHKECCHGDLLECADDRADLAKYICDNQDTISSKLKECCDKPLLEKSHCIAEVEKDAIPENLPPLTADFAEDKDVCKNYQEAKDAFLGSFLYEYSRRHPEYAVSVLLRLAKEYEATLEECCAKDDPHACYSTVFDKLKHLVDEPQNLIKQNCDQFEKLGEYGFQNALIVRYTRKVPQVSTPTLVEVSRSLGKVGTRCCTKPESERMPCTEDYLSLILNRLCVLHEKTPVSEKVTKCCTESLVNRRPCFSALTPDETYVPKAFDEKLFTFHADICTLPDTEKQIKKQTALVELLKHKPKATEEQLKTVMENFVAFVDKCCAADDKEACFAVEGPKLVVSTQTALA
Chain of ovalbumin (P01012 2-386): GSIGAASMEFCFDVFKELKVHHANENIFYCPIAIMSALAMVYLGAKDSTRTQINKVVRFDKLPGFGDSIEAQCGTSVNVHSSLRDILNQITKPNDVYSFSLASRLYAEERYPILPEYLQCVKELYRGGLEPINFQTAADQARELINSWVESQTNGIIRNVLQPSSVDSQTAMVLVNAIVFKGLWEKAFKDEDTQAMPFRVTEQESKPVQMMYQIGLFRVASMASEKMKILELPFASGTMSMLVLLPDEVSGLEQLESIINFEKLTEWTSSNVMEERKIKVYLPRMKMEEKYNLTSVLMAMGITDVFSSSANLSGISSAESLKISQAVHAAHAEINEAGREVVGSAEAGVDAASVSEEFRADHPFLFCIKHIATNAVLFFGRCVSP

B1: recombinant 6x-His-TGase fusion protein of Streptomyces mobaraensis ATCC 29032 (enzyme, UniProt P81453 77-407, looked up)
Protein-glutamine gamma-glutamyltransferase: DSDDRVTPPAEPLDRMPDPYRPSYGRAETVVNNYIRKWQQVYSHRDGRKQQMTEEQREWLSYGCVGVTWVNSGQYPTNRLAFASFDEDRFKNELKNGRPRSGETRAEFEGRVAKESFDEEKGFQRAREVASVMNRALENAHDESAYLDNLKKELANGNDALRNEDARSPFYSALRNTPSFKERNGGNHDPSRMKAVIYSKHFWSGQDRSSSADKRKYGDPDAFRPAPGTGLVDMSRDRNIPRSPTSPGEGFVNFDYGWFGAQTEADADKTVWTHGNHYHAPNGSLGAMHVYESKFRNWSEGYSDFDRGAYVITFIPKSWNTAPDKVKQGWP
modifications: N-terminal 6xHis tag
cross-linking of BSA5 peptide on SDS-PAGE [1]: increased amount of recombinant SM TGase corresponding to an increase in cross-linked (CL) BSA5 peptide, which run as a large molecular weight polymer on the top of the separating gel
cross-linking on SDS-PAGE, native and modified (denatured, dialyzed) protein [2]: only the reactions containing the modified protein species of BSA, histine H3 protein, glucose oxidase, and ovalbumin were cross-linked by the purified recombinant SM TGase
cross-linking on SDS-PAGE, native and modified (denatured, dialyzed) protein [3]: only the reactions containing the modified protein species of BSA, histine H3 protein, glucose oxidase, and ovalbumin were cross-linked by the purified recombinant SM TGase; complete and partial cross-linking was both observed for native histine H3 protein
cross-linking on SDS-PAGE, native and modified (denatured, dialyzed) protein [4]: only the reactions containing the modified protein species of BSA, histine H3 protein, glucose oxidase, and ovalbumin were cross-linked by the purified recombinant SM TGase
cross-linking of recombinant serum albumin on SDS-PAGE [5]: the cross-linking reaction containing recombinant serum albumin revealed a mixture of very high molecular weight polymers of different length
cross-linking of a mixture of β-casein and glucose oxidase on SDS-PAGE [6]: both protein species can be cross-linked by the purified recombinant SM TGase, as indicated by the disappearance of the two monomer bands
cross-linking of β-casein on SDS-PAGE [6]: the cross-linked (CL) β-casein migrated as a smear on the SDS-PAGE gel indicating a mixture of high molecular weight polymers of different length
cross-linking of β-casein on SDS-PAGE, 0 mM DTT [6]: in the absence of DTT (lane 1 and 2), the recombinant SM TGase had no cross-linking activity on β-casein and β-casein runs as a monomer
cross-linking of β-casein on SDS-PAGE, about 2 mM DTT [6]: the recombinant SM TGase was activated and β-casein run as a mixture of cross-linked polymer and monomer
cross-linking of β-casein on SDS-PAGE, about 10 mM DTT [6]: the catalytic cross-linking activity of SM TGase resulted in cross-linking of all detectable β-casein substrates in the reaction
